Common to all, as to test: SEC-MALS
(In general: Size exclusion chromatography separates by hydrodynamic size, large species first.)

For data set [1], the target named is homospermidine synthase (HSS) from Distimake quinquefolius individuum 1 (Distimake quinquefolius).
Data set [2] has as its target homospermidine synthase (HSS) from Distimake quinquefolius individuum 2 (Distimake quinquefolius).
Data set [3] concerns the target homospermidine synthase (HSS) from Ipomoea alba (Ipomoea alba).
Data set [4] deals with the molecule itself.
Data set [5] concerns the molecule itself. The source holds these as a separate data set.

Data on four molecules can be found in PMC9295680 (Plant Direct, 2022).

Read-outs that look alike come from different tables or passages of the source.

For “homospermidine synthase (HSS) from Distimake quinquefolius individuum 1 (enzyme)”, the stoichiometry N in data set [1] was 4.
In data set [2], “homospermidine synthase (HSS) from Distimake quinquefolius individuum 2 (enzyme)” came in with a stoichiometry N of 4.
“homospermidine synthase (HSS) from Ipomoea alba (enzyme)”: in data set [3], the stoichiometry N amounted to 4.

B1: homospermidine synthase (HSS) from Camonea umbellata (enzyme, UniProt A0A6M4MJB9 1-377, looked up)
chain: MGEATRDQNSTMDSAHAAVFKKSESLDGACMKIEGYDFNRGIDYPQLLKSLLSTGFQASNLGEAIQIVNEMLDWRLSHEPIMEDCNDKEKDPAYRDSVTTKIFLGFTSNLVSSGVRETIRYLVQHHMVDVVVTTAGGIEEDLIKCLAPTYKGEFSLRGSVLRSKGLNRIGNLLVPNDNYCKFEDWIIPIFDQMYEEQTKQNVLWTPSKVIARLGKEINDESSYLYWAYKNEIPVFCPSLTDGSLGDMLYFHSFTKEVADNSDRNPGLIVDIVGDIRAMDGEAVHAGSRKTGVLILGGGLPKHHICNANMMRNGADFAAYINTAQEFDGSDSGARPDEAVSWGKIRCEAKTVKVHCDATIAFPLLVAETFATKARKLH
B1: the “stoichiometry N” value in the data set “SEC-MALS [4]” came out at 4; in “SEC-MALS [5]”, 2.

As a reminder, the stoichiometry N is the number of molecules, sites or subunits per partner or assembly.
